According to the supplement of paper PMC9112550, “Optimization of the antimicrobial peptide Bac7 by deep mutational scanning” (BMC Biology, 2022):

System: Escherichia coli TOP10
Assay: shrunken log2 fold change of peptide-encoding DNA abundance (4.5 h post-induction vs induction); higher = less antimicrobial activity (less host growth inhibition)
Conditions: time post-induction: 4.5 h; library: site-saturation at positions 5, 18, 19, 20
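Note: peptides expressed intracellularly from a pBAD plasmid library in pooled LB shake-flask culture, induced with 0.3% L-arabinose, DNA abundance read by NGS, three biological replicates, DESeq2 with apeglm shrinkage.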

| Sequence | shrunken log2 fold change |
| --- | --- |
| RRIRWRPPRLPRPRPRPMSCPRP | -0.256 |
| RRIRWRPPRLPRPRPRPMTNPRP | -0.0531 |
| RRIRWRPPRLPRPRPRPMTSPRP | 0.0704 |
| RRIRWRPPRLPRPRPRPMVQPRP | 0.121 |
| RRIRWRPPRLPRPRPRPMYEPRP | -0.103 |
| RRIRWRPPRLPRPRPRPMYLPRP | -0.507 |
| RRIRWRPPRLPRPRPRPNDRPRP | 0.174 |
| RRIRWRPPRLPRPRPRPNEGPRP | -0.0387 |
| RRIRWRPPRLPRPRPRPNFLPRP | -0.308 |
| RRIRWRPPRLPRPRPRPNFMPRP | 0.0497 |
| RRIRWRPPRLPRPRPRPNGAPRP | 0.161 |
| RRIRWRPPRLPRPRPRPNGTPRP | 1.67 |
| RRIRWRPPRLPRPRPRPNHIPRP | -0.569 |
| RRIRWRPPRLPRPRPRPNHYPRP | -0.605 |
| RRIRWRPPRLPRPRPRPNIDPRP | -0.21 |
| RRIRWRPPRLPRPRPRPNIMPRP | -0.296 |
| RRIRWRPPRLPRPRPRPNKEPRP | -0.0697 |
| RRIRWRPPRLPRPRPRPNKFPRP | -0.369 |
| RRIRWRPPRLPRPRPRPNLRPRP | 0.174 |
| RRIRWRPPRLPRPRPRPNMEPRP | 0.0936 |
| RRIRWRPPRLPRPRPRPNMGPRP | -0.0382 |
| RRIRWRPPRLPRPRPRPNMIPRP | -0.114 |
| RRIRWRPPRLPRPRPRPNRDPRP | -0.00925 |
| RRIRWRPPRLPRPRPRPNRFPRP | -0.0274 |
| RRIRWRPPRLPRPRPRPNRVPRP | -0.0395 |

| Sequence | shrunken log2 fold change |
| --- | --- |
| RRIRWRPPRLPRPRPRPNSFPRP | -0.0131 |
| RRIRWRPPRLPRPRPRPNTTPRP | -0.418 |
| RRIRWRPPRLPRPRPRPNVGPRP | -0.129 |
| RRIRWRPPRLPRPRPRPNWDPRP | -0.0442 |
| RRIRWRPPRLPRPRPRPNWWPRP | 0.182 |
| RRIRWRPPRLPRPRPRPNYKPRP | -0.552 |
| RRIRWRPPRLPRPRPRPNYMPRP | -0.385 |
| RRIRWRPPRLPRPRPRPNYRPRP | -0.034 |
| RRIRWRPPRLPRPRPRPNYSPRP | -0.15 |
| RRIRWRPPRLPRPRPRPPAVPRP | 0.698 |
| RRIRWRPPRLPRPRPRPPFGPRP | 0.274 |
| RRIRWRPPRLPRPRPRPPFQPRP | 0.248 |
| RRIRWRPPRLPRPRPRPPGDPRP | 0.88 |
| RRIRWRPPRLPRPRPRPPHPPRP | 0.373 |
| RRIRWRPPRLPRPRPRPPKCPRP | 0.156 |
| RRIRWRPPRLPRPRPRPPKDPRP | 0.0853 |
| RRIRWRPPRLPRPRPRPPKQPRP | 1.07 |
| RRIRWRPPRLPRPRPRPPLPPRP | 1.07 |
| RRIRWRPPRLPRPRPRPPNDPRP | 0.0849 |
| RRIRWRPPRLPRPRPRPPPKPRP | 0.945 |
| RRIRWRPPRLPRPRPRPPTIPRP | -0.0126 |
| RRIRWRPPRLPRPRPRPPTLPRP | 0.315 |
| RRIRWRPPRLPRPRPRPPTWPRP | 0.802 |
| RRIRWRPPRLPRPRPRPPVHPRP | -0.221 |
| RRIRWRPPRLPRPRPRPPVNPRP | 0.13 |

| Sequence | shrunken log2 fold change |
| --- | --- |
| RRIRWRPPRLPRPRPRPPWTPRP | 0.688 |
| RRIRWRPPRLPRPRPRPPYAPRP | 0.426 |
| RRIRWRPPRLPRPRPRPPYHPRP | -0.106 |
| RRIRWRPPRLPRPRPRPQCPPRP | -0.357 |
| RRIRWRPPRLPRPRPRPQCSPRP | 0.221 |
| RRIRWRPPRLPRPRPRPQDMPRP | -0.199 |
| RRIRWRPPRLPRPRPRPQFNPRP | -0.498 |
| RRIRWRPPRLPRPRPRPQGNPRP | -1.12 |
| RRIRWRPPRLPRPRPRPQIDPRP | -0.688 |
| RRIRWRPPRLPRPRPRPQIKPRP | -0.21 |
| RRIRWRPPRLPRPRPRPQIYPRP | -0.000758 |
| RRIRWRPPRLPRPRPRPQKDPRP | -0.154 |
| RRIRWRPPRLPRPRPRPQKLPRP | 0.0774 |
| RRIRWRPPRLPRPRPRPQKSPRP | 0.0128 |
| RRIRWRPPRLPRPRPRPQLLPRP | 0.115 |
| RRIRWRPPRLPRPRPRPQMTPRP | -0.0595 |
| RRIRWRPPRLPRPRPRPQQEPRP | 0.0149 |
| RRIRWRPPRLPRPRPRPQQKPRP | -0.0581 |
| RRIRWRPPRLPRPRPRPQQLPRP | -0.289 |
| RRIRWRPPRLPRPRPRPQQQPRP | 0.108 |
| RRIRWRPPRLPRPRPRPQRLPRP | 0.159 |
| RRIRWRPPRLPRPRPRPQSIPRP | -0.584 |
| RRIRWRPPRLPRPRPRPQTKPRP | 0.434 |
| RRIRWRPPRLPRPRPRPQTSPRP | -0.0118 |
| RRIRWRPPRLPRPRPRPQWYPRP | -0.28 |

| Sequence | shrunken log2 fold change |
| --- | --- |
| RRIRWRPPRLPRPRPRPQYDPRP | -0.212 |
| RRIRWRPPRLPRPRPRPQYFPRP | -0.181 |
| RRIRWRPPRLPRPRPRPQYLPRP | -0.12 |
| RRIRWRPPRLPRPRPRPRALPRP | 0.354 |
| RRIRWRPPRLPRPRPRPRCKPRP | 0.33 |
| RRIRWRPPRLPRPRPRPRDFPRP | -0.031 |
| RRIRWRPPRLPRPRPRPRDVPRP | 0.333 |
| RRIRWRPPRLPRPRPRPRFCPRP | 0.234 |
| RRIRWRPPRLPRPRPRPRMCPRP | 0.272 |
| RRIRWRPPRLPRPRPRPRNQPRP | 0.145 |
| RRIRWRPPRLPRPRPRPRPRPRP | 0.974 |
| RRIRWRPPRLPRPRPRPRPWPRP | 0.289 |
| RRIRWRPPRLPRPRPRPRRMPRP | 0.215 |
| RRIRWRPPRLPRPRPRPRSHPRP | 0.273 |
| RRIRWRPPRLPRPRPRPRSVPRP | 0.247 |
| RRIRWRPPRLPRPRPRPRTNPRP | 0.0699 |
| RRIRWRPPRLPRPRPRPRTVPRP | 0.0512 |
| RRIRWRPPRLPRPRPRPRVWPRP | 0.646 |
| RRIRWRPPRLPRPRPRPRYKPRP | -0.104 |
| RRIRWRPPRLPRPRPRPSAFPRP | 0.0981 |
| RRIRWRPPRLPRPRPRPSANPRP | 0.559 |
| RRIRWRPPRLPRPRPRPSDKPRP | -0.246 |
| RRIRWRPPRLPRPRPRPSDWPRP | 0.12 |
| RRIRWRPPRLPRPRPRPSGCPRP | -0.0452 |
| RRIRWRPPRLPRPRPRPSHFPRP | -0.151 |

| Sequence | shrunken log2 fold change |
| --- | --- |
| RRIRWRPPRLPRPRPRPSHRPRP | -0.271 |
| RRIRWRPPRLPRPRPRPSHWPRP | 0.3 |
| RRIRWRPPRLPRPRPRPSIAPRP | 0.0837 |
| RRIRWRPPRLPRPRPRPSICPRP | -0.0271 |
| RRIRWRPPRLPRPRPRPSLFPRP | 0.114 |
| RRIRWRPPRLPRPRPRPSNGPRP | -0.19 |
| RRIRWRPPRLPRPRPRPSNLPRP | -0.0676 |
| RRIRWRPPRLPRPRPRPSQGPRP | 0.27 |
| RRIRWRPPRLPRPRPRPSQYPRP | -0.41 |
| RRIRWRPPRLPRPRPRPSTAPRP | 0.316 |
| RRIRWRPPRLPRPRPRPSTGPRP | 0.00923 |
| RRIRWRPPRLPRPRPRPSTHPRP | 0.667 |
| RRIRWRPPRLPRPRPRPSVAPRP | 0.491 |
| RRIRWRPPRLPRPRPRPSVKPRP | -0.159 |
| RRIRWRPPRLPRPRPRPSVQPRP | 0.128 |
| RRIRWRPPRLPRPRPRPSVTPRP | 0.145 |
| RRIRWRPPRLPRPRPRPSWLPRP | -0.167 |
| RRIRWRPPRLPRPRPRPSWTPRP | -0.0457 |
| RRIRWRPPRLPRPRPRPSYPPRP | -0.254 |
| RRIRWRPPRLPRPRPRPTAKPRP | 0.0717 |
| RRIRWRPPRLPRPRPRPTCDPRP | 0.388 |
| RRIRWRPPRLPRPRPRPTDRPRP | -0.0423 |
| RRIRWRPPRLPRPRPRPTELPRP | 0.135 |
| RRIRWRPPRLPRPRPRPTIKPRP | -0.125 |
| RRIRWRPPRLPRPRPRPTIPPRP | -0.109 |

| Sequence | shrunken log2 fold change |
| --- | --- |
| RRIRWRPPRLPRPRPRPTKWPRP | -0.126 |
| RRIRWRPPRLPRPRPRPTNFPRP | 0.0339 |
| RRIRWRPPRLPRPRPRPTPNPRP | 0.519 |
| RRIRWRPPRLPRPRPRPTQWPRP | 0.346 |
| RRIRWRPPRLPRPRPRPTRIPRP | 1.97 |
| RRIRWRPPRLPRPRPRPTSKPRP | -0.0975 |
| RRIRWRPPRLPRPRPRPTSNPRP | -0.0919 |
| RRIRWRPPRLPRPRPRPTTNPRP | 0.217 |
| RRIRWRPPRLPRPRPRPTTWPRP | 0.297 |
| RRIRWRPPRLPRPRPRPTVRPRP | 1.14 |
| RRIRWRPPRLPRPRPRPTYGPRP | 0.0553 |
| RRIRWRPPRLPRPRPRPVAFPRP | 0.313 |
| RRIRWRPPRLPRPRPRPVDFPRP | 0.0271 |
| RRIRWRPPRLPRPRPRPVDLPRP | -0.107 |
| RRIRWRPPRLPRPRPRPVDVPRP | -0.0135 |
| RRIRWRPPRLPRPRPRPVEEPRP | 0.0996 |
| RRIRWRPPRLPRPRPRPVEFPRP | -0.177 |
| RRIRWRPPRLPRPRPRPVFRPRP | -0.153 |
| RRIRWRPPRLPRPRPRPVFYPRP | -0.193 |
| RRIRWRPPRLPRPRPRPVGPPRP | 0.281 |
| RRIRWRPPRLPRPRPRPVIYPRP | -0.279 |
| RRIRWRPPRLPRPRPRPVKFPRP | 0.0171 |
| RRIRWRPPRLPRPRPRPVKNPRP | 0.238 |
| RRIRWRPPRLPRPRPRPVMIPRP | 0.0436 |
| RRIRWRPPRLPRPRPRPVNHPRP | -0.191 |
